In patent US20050226874A1 (CENTRE NATIONAL DE LA RECHERCHE SCIENTIFIQUE CNRS A …, published 2005):

Key:
[1] = biological target: T1, biotinylated human recombinant CD4 (Repligen Inc.) (human, UniProt P01730 26-394, limits assumed, biotinylated (sites not given)); test: quantified Spot reactivity, membrane probed with biotinylated CD4
T1 construct: Probe of the Spot membranes, used at 1 µg/ml; also called biotinylated CD4; CD4 probe
Method: The antigenic reactivity of the peptides bound to the cellulose membrane was tested with biotinylated CD4 (1 μg/ml) under conditions that led to the production of a blue precipitate for the reactive spots as described in [Bès, 2001b].

[2] = biological target: T2, soluble human recombinant CD4 expressed in baculovirus (human, UniProt P01730 26-396, limits assumed); test: SPR (BIAcore), CD4 immobilised, Exp. 1
T2 construct: Coated on plates for the ELISA and covalently immobilised on the sensor for BIAcore; Only called soluble; also called soluble CD4; CD4 expressed in the baculovirus
Method: (§1) The kinetic parameters of the binding of CD4 to the paratope of the Fab fragments of the 13B8.2 antibody were determined by analysis of the surface plasmon resonance by means of a BIAcore analyzer (BIAcore AB, Uppsala, Sweden).

[3] = biological target: T2, soluble human recombinant CD4 expressed …; test: SPR (BIAcore), CD4 immobilised, Exp. 2
Method: as §1

[4] = biological target: T2, soluble human recombinant CD4 expressed …; test: SPR (BIAcore), CD4 immobilised, Exp. 3
Method: as §1

[5] = biological target: T3, membranous CD4 (wild human CD4 expressed on cells) (human, UniProt P01730 26-458); test: flow cytometry, T A2.01/CD4 cells, Fab at 1 µg/ml, fluorescein-labeled anti-kappa chain antibody
T3 construct: whole, on cells; also called T A2.01/CD4 cells; T AN2.01/CD4 cells
Method: (§2) The binding of the wild or mutant Fabs to the membranous CD4 was evaluated by flow cytometry.
(§3) In order to determine the binding of the fragments to the membranous CD4, T AN2.01 CD4+ cells were analyzed by indirect immunofluorescent labeling and flow cytometry (FIG. 4).

[6] = biological target: T3, membranous CD4 (wild human CD4 …); test: flow cytometry, T A2.01/CD4 cells, Fab at 10 µg/ml, fluorescein-labeled anti-kappa chain antibody
Method: as §2, §3

[7] = biological target: T2, soluble human recombinant CD4 expressed …; test: SPR (BIAcore), CD4 immobilised
Method: as §1

Row | Binder | binding result [1] | Kd [7] [nM] | koff [7] [s⁻¹] | kon [7] [M⁻¹ s⁻¹] | also measured
1 | GVIWRS (also called peptide 1; control peptide 1) [hexapeptide 49GVIWRS54 of the CDR-H2 region of 13B8.2] | binds | – | – | – | –
2 | AVIWRS (Spot peptide on cellulose membrane; also called AVIWRS) [alanine analogue of peptide 49GVIWRS54 with Gly49 replaced by Ala] | binds | – | – | – | –
3 | GVAWRS (Spot peptide on cellulose membrane; also called GVAWRS) [alanine analogue of peptide 49GVIWRS54 with Ile51 replaced by Ala] | binds | – | – | – | –
4 | WRSGIT (Spot peptide on cellulose membrane; also called peptide 2) [hexapeptide 52WRSGIT57 of the CDR-H2 region of 13B8.2] | binds | – | – | – | –
5 | WRSGAT (also called WRSGAT) [alanine analogue of peptide 52WRSGIT57 with Ile56 replaced by Ala (dotted bar I56)] | binds | – | – | – | –
6 | WRAGIT (also called WRAGIT) [alanine analogue of peptide 52WRSGIT57 with Ser54 replaced by Ala (dotted bar S54)] | binds | – | – | – | –
7 | WRSAIT (also called WRSAIT) [alanine analogue of peptide 52WRSGIT57 with Gly55 replaced by Ala (dotted bar G55)] | binds | – | – | – | –
8 | WRSGIA (also called WRSGIA) [alanine analogue of peptide 52WRSGIT57 with Thr57 replaced by Ala (dotted bar T57)] | binds | – | – | – | –
9 | ARSGIT (also called ARSGIT) [alanine analogue of peptide 52WRSGIT57 with Trp52 replaced by Ala (dotted bar W52)] | binds | – | – | – | –
10 | wild recombinant chimeric Fab fragment of the 13B8.2 anti-CD4 antibody (Fab, V domains shown, Chimeric Fab: murine V domains fused to human CH1-γ1 (Fdγ1) and human Cκ, expressed in baculovirus/Sf9 cells, purified on protein G; also called Fabwild 13B8.2; wild Fab) VH: QVQLKQSGPGLVQPSQSLSITCTVSGFSLTTFGVHWVRQSPGKGLEWLGVIWRSGITDYNVPFMSRLSITKDNSKSQVFFKLNSLQPDDTAIYYCAKNDPGTGFAYWGQGTLVTVSA VL: DIQMTQSPASLSASVGETVTFTCRASENIYSYLAWYQQKQGKSPQLLVHDAKTLAEGVPSRFSGGGSGTQFSLKINTLQPEDFGTYYCQHHYGNPPTFGGGTKLEIK | – | – | – | – | Kd [2]: 28.4 nM; koff [2]: 0.000108 s⁻¹; kon [2]: 3800 M⁻¹ s⁻¹; Kd [3]: 33.5 nM; koff [3]: 0.000161 s⁻¹; kon [3]: 4800 M⁻¹ s⁻¹; Kd [4]: 25.6 nM; koff [4]: 6.4e-05 s⁻¹; kon [4]: 2500 M⁻¹ s⁻¹; percent of cells under the marker bar of the histogram [5]: 44.7%; percent of cells under the marker bar of the histogram [6]: 84.8%
11 | mutant Fab W103-H of the 13B8.2 antibody (Fab, V domains shown, Chimeric Fab with human CH1-γ1 and Cκ; baculovirus/Sf9) VH: QVQLKQSGPGLVQPSQSLSITCTVSGFSLTTFGVHWVRQSPGKGLEWLGVIWRSGITDYNVPFMSRLSITKDNSKSQVFFKLNSLQPDDTAIYYCAKNDPGTGFAYAGQGTLVTVSA VL: DIQMTQSPASLSASVGETVTFTCRASENIYSYLAWYQQKQGKSPQLLVHDAKTLAEGVPSRFSGGGSGTQFSLKINTLQPEDFGTYYCQHHYGNPPTFGGGTKLEIK | – | 4030 | 0.00112 | 278 | percent of cells under the marker bar of the histogram [6]: 6.76%
12 | mutant Fab F100K-H of the 13B8.2 antibody (Fab, V domains shown, Chimeric Fab with human CH1-γ1 and Cκ; baculovirus/Sf9) VH: QVQLKQSGPGLVQPSQSLSITCTVSGFSLTTFGVHWVRQSPGKGLEWLGVIWRSGITDYNVPFMSRLSITKDNSKSQVFFKLNSLQPDDTAIYYCAKNDPGTGAAYWGQGTLVTVSA VL: DIQMTQSPASLSASVGETVTFTCRASENIYSYLAWYQQKQGKSPQLLVHDAKTLAEGVPSRFSGGGSGTQFSLKINTLQPEDFGTYYCQHHYGNPPTFGGGTKLEIK | – | 845 | 0.000475 | 562 | –
13 | control mutant Fab V61-H of the 13B8.2 antibody (Fab, V domains shown, Chimeric Fab with human CH1-γ1 and Cκ; baculovirus/Sf9; Control position, not a Spot contributor residue; also called V61-Hcontrol) VH: QVQLKQSGPGLVQPSQSLSITCTVSGFSLTTFGVHWVRQSPGKGLEWLGVIWRSGITDYNAPFMSRLSITKDNSKSQVFFKLNSLQPDDTAIYYCAKNDPGTGFAYWGQGTLVTVSA VL: DIQMTQSPASLSASVGETVTFTCRASENIYSYLAWYQQKQGKSPQLLVHDAKTLAEGVPSRFSGGGSGTQFSLKINTLQPEDFGTYYCQHHYGNPPTFGGGTKLEIK | – | – | – | – | Kd [2]: 2 nM; koff [2]: 0.000172 s⁻¹; kon [2]: 86800 M⁻¹ s⁻¹; Kd [3]: 2.9 nM; koff [3]: 0.000324 s⁻¹; kon [3]: 112000 M⁻¹ s⁻¹; percent of cells under the marker bar of the histogram [5]: 62.9%
14 | mutant Fab H35-H of the 13B8.2 antibody (Fab, V domains shown, Chimeric Fab with human CH1-γ1 and Cκ; baculovirus/Sf9) VH: QVQLKQSGPGLVQPSQSLSITCTVSGFSLTTFGVAWVRQSPGKGLEWLGVIWRSGITDYNVPFMSRLSITKDNSKSQVFFKLNSLQPDDTAIYYCAKNDPGTGFAYWGQGTLVTVSA VL: DIQMTQSPASLSASVGETVTFTCRASENIYSYLAWYQQKQGKSPQLLVHDAKTLAEGVPSRFSGGGSGTQFSLKINTLQPEDFGTYYCQHHYGNPPTFGGGTKLEIK | – | 6280 | 0.00189 | 301 | percent of cells under the marker bar of the histogram [6]: 33.6%
15 | mutant Fab W36-H of the 13B8.2 antibody (Fab, V domains shown, Chimeric Fab with human CH1-γ1 and Cκ; baculovirus/Sf9) VH: QVQLKQSGPGLVQPSQSLSITCTVSGFSLTTFGVHAVRQSPGKGLEWLGVIWRSGITDYNVPFMSRLSITKDNSKSQVFFKLNSLQPDDTAIYYCAKNDPGTGFAYWGQGTLVTVSA VL: DIQMTQSPASLSASVGETVTFTCRASENIYSYLAWYQQKQGKSPQLLVHDAKTLAEGVPSRFSGGGSGTQFSLKINTLQPEDFGTYYCQHHYGNPPTFGGGTKLEIK | – | 15.4 | 0.000271 | 17600 | percent of cells under the marker bar of the histogram [6]: 65.5%
16 | mutant Fab F32-H of the 13B8.2 antibody (Fab, V domains shown, Chimeric Fab with human CH1-γ1 and Cκ; baculovirus/Sf9; also called F32 mutant Fab) VH: QVQLKQSGPGLVQPSQSLSITCTVSGFSLTTAGVHWVRQSPGKGLEWLGVIWRSGITDYNVPFMSRLSITKDNSKSQVFFKLNSLQPDDTAIYYCAKNDPGTGFAYWGQGTLVTVSA VL: DIQMTQSPASLSASVGETVTFTCRASENIYSYLAWYQQKQGKSPQLLVHDAKTLAEGVPSRFSGGGSGTQFSLKINTLQPEDFGTYYCQHHYGNPPTFGGGTKLEIK | – | – | – | – | Kd [2]: 13.5 nM; koff [2]: 0.000248 s⁻¹; kon [2]: 18300 M⁻¹ s⁻¹; Kd [3]: 17 nM; koff [3]: 0.000246 s⁻¹; kon [3]: 14400 M⁻¹ s⁻¹; Kd [4]: 16.9 nM; koff [4]: 0.00025 s⁻¹; kon [4]: 14800 M⁻¹ s⁻¹; percent of cells under the marker bar of the histogram [6]: 82.4%
17 | mutant Fab Y32-L of the 13B8.2 antibody (Fab, V domains shown, Chimeric Fab with human CH1-γ1 and Cκ; baculovirus/Sf9) VH: QVQLKQSGPGLVQPSQSLSITCTVSGFSLTTFGVHWVRQSPGKGLEWLGVIWRSGITDYNVPFMSRLSITKDNSKSQVFFKLNSLQPDDTAIYYCAKNDPGTGFAYWGQGTLVTVSA VL: DIQMTQSPASLSASVGETVTFTCRASENIYSALAWYQQKQGKSPQLLVHDAKTLAEGVPSRFSGGGSGTQFSLKINTLQPEDFGTYYCQHHYGNPPTFGGGTKLEIK | – | 8930 | 0.000585 | – | –
18 | mutant Fab R38-H of the 13B8.2 antibody (Fab, V domains shown, Chimeric Fab with human CH1-γ1 and Cκ; baculovirus/Sf9) VH: QVQLKQSGPGLVQPSQSLSITCTVSGFSLTTFGVHWVAQSPGKGLEWLGVIWRSGITDYNVPFMSRLSITKDNSKSQVFFKLNSLQPDDTAIYYCAKNDPGTGFAYWGQGTLVTVSA VL: DIQMTQSPASLSASVGETVTFTCRASENIYSYLAWYQQKQGKSPQLLVHDAKTLAEGVPSRFSGGGSGTQFSLKINTLQPEDFGTYYCQHHYGNPPTFGGGTKLEIK | – | 859 | 0.00014 | 163 | percent of cells under the marker bar of the histogram [5]: 48%
19 | mutant Fab C92-H of the 13B8.2 antibody (Fab, V domains shown, Chimeric Fab with human CH1-γ1 and Cκ; baculovirus/Sf9) VH: QVQLKQSGPGLVQPSQSLSITCTVSGFSLTTFGVHWVRQSPGKGLEWLGVIWRSGITDYNVPFMSRLSITKDNSKSQVFFKLNSLQPDDTAIYYAAKNDPGTGFAYWGQGTLVTVSA VL: DIQMTQSPASLSASVGETVTFTCRASENIYSYLAWYQQKQGKSPQLLVHDAKTLAEGVPSRFSGGGSGTQFSLKINTLQPEDFGTYYCQHHYGNPPTFGGGTKLEIK | – | 3.7 | 0.000358 | 96100 | percent of cells under the marker bar of the histogram [5]: 76.5%
20 | mutant Fab W52-H of the 13B8.2 antibody (Fab, V domains shown, Chimeric Fab with human CH1-γ1 and Cκ; baculovirus/Sf9) VH: QVQLKQSGPGLVQPSQSLSITCTVSGFSLTTFGVHWVRQSPGKGLEWLGVIARSGITDYNVPFMSRLSITKDNSKSQVFFKLNSLQPDDTAIYYCAKNDPGTGFAYWGQGTLVTVSA VL: DIQMTQSPASLSASVGETVTFTCRASENIYSYLAWYQQKQGKSPQLLVHDAKTLAEGVPSRFSGGGSGTQFSLKINTLQPEDFGTYYCQHHYGNPPTFGGGTKLEIK | – | 3620 | 0.000859 | 237 | –
21 | mutant Fab R53-H of the 13B8.2 antibody (Fab, V domains shown, Chimeric Fab with human CH1-γ1 and Cκ; baculovirus/Sf9) VH: QVQLKQSGPGLVQPSQSLSITCTVSGFSLTTFGVHWVRQSPGKGLEWLGVIWASGITDYNVPFMSRLSITKDNSKSQVFFKLNSLQPDDTAIYYCAKNDPGTGFAYWGQGTLVTVSA VL: DIQMTQSPASLSASVGETVTFTCRASENIYSYLAWYQQKQGKSPQLLVHDAKTLAEGVPSRFSGGGSGTQFSLKINTLQPEDFGTYYCQHHYGNPPTFGGGTKLEIK | – | 29200 | 0.0105 | 359 | percent of cells under the marker bar of the histogram [6]: 43.2%
